In data set [1] the target is T1, hOGG1 wild type;c-Myc;Max (human;human?;human?) (UniProt O15527+P01106). Briefly: AFM (QD-Myc). The settings on record: FP at 25°C with 5 nM labelled DNA, EMSA room temp 30 min, 15% native PAGE 0.5x TBE 4°C, interaction buffer 20 mM Tris-HCl pH 7.6, 200 mM NaCl (Fig. S12) ….
Data set [2] has as its target hOGG1 C28A;c-Myc C28A (human;human?) (UniProt O15527+P01106). Briefly: AFM. The settings on record: 8-oxoguanine at ~50% (49.8%) of length; FP at 25°C with 5 nM labelled DNA; EMSA room temp 30 min, 15% native PAGE 0.5x TBE 4°C; interaction buffer 20 mM Tris-HCl pH 7.6, 200 mM NaCl (Fig. S12) ….
Data set [3] deals with hOGG1 K249Q K249Q (human) (UniProt O15527). Briefly: AFM. The settings on record: 8-oxoguanine at ~50% (49.8%) of length, FP at 25°C with 5 nM labelled DNA, EMSA room temp 30 min, 15% native PAGE 0.5x TBE 4°C.
In data set [4] the target is hOGG1 K249Q;c-Myc K249Q (human;human?) (UniProt O15527+P01106). Briefly: AFM. The settings on record: 8-oxoguanine at ~50% (49.8%) of length, FP at 25°C with 5 nM labelled DNA, EMSA room temp 30 min, 15% native PAGE 0.5x TBE 4°C. A general note: In EMSA bound probe runs differently from free probe, usually more slowly.
In data set [5] the target is T1, hOGG1 wild type;c-Myc;Max (human;human?;human?). Briefly: AFM. The settings on record: 8-oxoguanine at ~50% (49.8%) of length, FP at 25°C with 5 nM labelled DNA, EMSA room temp 30 min, 15% native PAGE 0.5x TBE 4°C.
For data set [6], the target named is T2, hOGG1 wild type;c-Myc (human;human?) (UniProt O15527+P01106). Briefly: AFM. The settings on record: 30 nM Myc, 8-oxoguanine at ~50% (49.8%) of length, FP at 25°C with 5 nM labelled DNA, EMSA room temp 30 min, 15% native PAGE 0.5x TBE 4°C, interaction buffer 20 mM Tris-HCl pH 7.6, 200 mM NaCl (Fig. S12) ….
The next data set has as its target hOGG1 C28A C28A (human) (UniProt O15527). Briefly: AFM. The settings on record: oxidising; specificity 779 ± 471; 8-oxoguanine at ~50% (49.8%) of length; FP at 25°C with 5 nM labelled DNA; EMSA room temp 30 min, 15% native PAGE 0.5x TBE 4°C; interaction buffer 20 mM Tris-HCl pH 7.6, 200 mM NaCl (Fig. S12); reduci.
The target of data set [7] is hOGG1 C28A;c-Myc;Max C28A (human;human?;human?) (UniProt O15527+P01106). Briefly: AFM (QD-Myc). The settings on record: 8-oxoguanine 8 bp upstream of E-box, ~50% of length; FP at 25°C with 5 nM labelled DNA; EMSA room temp 30 min, 15% native PAGE 0.5x TBE 4°C; interaction buffer 20 mM Tris-HCl pH 7.6, 200 mM NaCl (Fig. S12) ….
Data set [8] deals with hOGG1 K249Q;c-Myc;Max K249Q (human;human?;human?) (UniProt O15527+P01106). Briefly: AFM (QD-Myc). The settings on record: 8-oxoguanine 8 bp upstream of E-box, ~50% of length; FP at 25°C with 5 nM labelled DNA; EMSA room temp 30 min, 15% native PAGE 0.5x TBE 4°C; interaction buffer 20 mM Tris-HCl pH 7.6, 200 mM NaCl (Fig. S12) ….
For another data set, the target named is c-Myc;Max (UniProt P01106). Briefly: AFM (QD-Myc). The settings on record: 8-oxoguanine 8 bp upstream of E-box, ~50% of length; FP at 25°C with 5 nM labelled DNA; EMSA room temp 30 min, 15% native PAGE 0.5x TBE 4°C; interaction buffer 20 mM Tris-HCl pH 7.6, 200 mM NaCl (Fig. S12) ….
The target in data set [9] is T2, hOGG1 wild type;c-Myc (human;human?). Briefly: AFM (QD-Myc). The settings on record: 8-oxoguanine 8 bp upstream of E-box, ~50% of length; FP at 25°C with 5 nM labelled DNA; EMSA room temp 30 min, 15% native PAGE 0.5x TBE 4°C; interaction buffer 20 mM Tris-HCl pH 7.6, 200 mM NaCl (Fig. S12) ….

Values joined by “and” are separate entries in the source; they are usually repeats but may differ in a detail not shown here. Equal values may be shown once.

The text below walks through data of PMC9561264.

T1 sequence (P01106 whole entry, looked up, chain 1 of 2): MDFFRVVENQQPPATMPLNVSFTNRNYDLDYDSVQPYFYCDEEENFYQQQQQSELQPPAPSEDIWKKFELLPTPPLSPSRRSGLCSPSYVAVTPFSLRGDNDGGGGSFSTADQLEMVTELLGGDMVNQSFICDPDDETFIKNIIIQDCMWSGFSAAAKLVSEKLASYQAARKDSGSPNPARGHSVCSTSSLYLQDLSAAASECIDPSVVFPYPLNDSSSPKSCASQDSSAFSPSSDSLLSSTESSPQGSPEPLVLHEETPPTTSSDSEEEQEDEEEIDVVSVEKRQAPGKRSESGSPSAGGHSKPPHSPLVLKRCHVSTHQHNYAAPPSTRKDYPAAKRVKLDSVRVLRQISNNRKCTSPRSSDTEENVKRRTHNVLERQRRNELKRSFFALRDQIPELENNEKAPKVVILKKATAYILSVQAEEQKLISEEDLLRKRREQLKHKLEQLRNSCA
T1 sequence (O15527 whole entry, looked up, chain 2 of 2): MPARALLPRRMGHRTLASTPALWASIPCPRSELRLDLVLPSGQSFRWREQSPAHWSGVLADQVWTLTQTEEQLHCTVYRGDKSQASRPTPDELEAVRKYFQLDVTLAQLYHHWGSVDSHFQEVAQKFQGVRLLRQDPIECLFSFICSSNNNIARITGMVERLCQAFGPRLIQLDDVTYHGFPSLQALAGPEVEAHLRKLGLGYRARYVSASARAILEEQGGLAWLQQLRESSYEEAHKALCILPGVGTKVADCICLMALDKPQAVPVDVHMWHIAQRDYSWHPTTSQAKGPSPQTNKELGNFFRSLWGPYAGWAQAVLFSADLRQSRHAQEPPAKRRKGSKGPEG
T2 sequence (O15527 whole entry, chain 1 of 2): as the sequence (O15527 whole entry, looked up, chain 2 of 2) above
T2 sequence (P01106 16-454, chain 2 of 2): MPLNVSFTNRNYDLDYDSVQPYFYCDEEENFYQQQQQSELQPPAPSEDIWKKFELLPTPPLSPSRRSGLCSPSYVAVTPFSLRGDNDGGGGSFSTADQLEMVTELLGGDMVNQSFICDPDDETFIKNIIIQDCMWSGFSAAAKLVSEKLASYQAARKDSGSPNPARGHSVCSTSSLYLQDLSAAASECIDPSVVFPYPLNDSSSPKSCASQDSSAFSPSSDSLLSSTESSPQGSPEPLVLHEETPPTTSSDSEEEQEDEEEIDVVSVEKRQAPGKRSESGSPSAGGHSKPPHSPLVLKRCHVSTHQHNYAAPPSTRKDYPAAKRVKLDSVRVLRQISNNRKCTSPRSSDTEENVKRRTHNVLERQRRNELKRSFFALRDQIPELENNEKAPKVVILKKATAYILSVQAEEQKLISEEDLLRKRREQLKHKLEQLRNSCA
Sequence of c-Myc;Max (P01106 whole entry, looked up): as the sequence (P01106 whole entry, looked up, chain 1 of 2) above
Sequence of hOGG1 K249Q;c-Myc;Max K249Q (human;human?;human?) (P01106 whole entry, looked up, chain 1 of 2): as above
Sequence of hOGG1 K249Q;c-Myc;Max K249Q (human;human?;human?) (O15527 whole entry, looked up, stated change not applied, chain 2 of 2): as the sequence (O15527 whole entry, looked up, chain 2 of 2) above
Sequence of hOGG1 K249Q K249Q (human) (O15527 whole entry K249Q): as the sequence (O15527 whole entry, looked up, chain 2 of 2) above, with K249Q counted along it
Sequence of hOGG1 K249Q;c-Myc K249Q (human;human?) (O15527 whole entry K249Q, chain 1 of 2): as the sequence (O15527 whole entry, looked up, chain 2 of 2) above, with K249Q counted along it
Sequence of hOGG1 K249Q;c-Myc K249Q (human;human?) (P01106 16-454, chain 2 of 2): as the sequence (P01106 16-454, chain 2 of 2) above
Sequence of hOGG1 C28A;c-Myc;Max C28A (human;human?;human?) (P01106 whole entry, looked up, chain 1 of 2): as the sequence (P01106 whole entry, looked up, chain 1 of 2) above
Sequence of hOGG1 C28A;c-Myc;Max C28A (human;human?;human?) (O15527 whole entry, looked up, stated change not applied, chain 2 of 2): as the sequence (O15527 whole entry, looked up, chain 2 of 2) above
Sequence of hOGG1 C28A;c-Myc C28A (human;human?) (O15527 whole entry C28A, chain 1 of 2): as the sequence (O15527 whole entry, looked up, chain 2 of 2) above, with C28A counted along it
Sequence of hOGG1 C28A;c-Myc C28A (human;human?) (P01106 16-454, chain 2 of 2): as the sequence (P01106 16-454, chain 2 of 2) above
Sequence of hOGG1 C28A C28A (human) (O15527 whole entry C28A): as the sequence (O15527 whole entry, looked up, chain 2 of 2) above, with C28A counted along it

The substance E-box AFM substrate gave a binding signal in data set [1] of 0.11 Myc/DNA.
As for oxoG 505 bp AFM substrate, the binding signal (counts/DNA at oxoG) in [2] was found to be 0.14; in [3] (oxidising, specificity 294 ± 139, interaction buffer 20 mM Tris-HCl pH 7.6, 200 mM NaCl (Fig. S12), reduci), 0.09; in data set [3] (reducing, specificity 468 ± 197, interaction buffer 20 mM Tris-HCl pH 7.6, 200 mM NaCl (Fig. S12) …), 0.18; in [4] (oxidising, specificity 438 ± 217, interaction buffer 20 mM Tris-HCl pH 7.6, 200 mM NaCl (Fig. S12), reduci) it was 0.1; in data set [4] (reducing, specificity 421 ± 153, interaction buffer 20 mM Tris-HCl pH 7.6, 200 mM NaCl (Fig. S12) …), 0.15; in [5] (oxidising, specificity 421 ± 252, interaction buffer 20 mM Tris-HCl pH 7.6, 200 mM NaCl (Fig. S12), reduci) it was 0.19. In addition, the binding signal (counts/DNA at oxoG) in [5] (reducing, specificity 456 ± 289, interaction buffer 20 mM Tris-HCl pH 7.6, 200 mM NaCl (Fig. S12) …) is 0.12; in [6] (oxidising, specificity 423 ± 155), 0.17; in data set [6] (reducing, specificity 517 ± 161), 0.17; in the data set with hOGG1 C28A C28A (human) it was 0.14. The binding signal in data set [1] (8-oxoguanine at ~50% (49.8%) of length) is 0.15 Myc/DNA and 0.06 Myc/DNA.
As to oxoG-E-box AFM substrate, the binding signal in data set [1] (8-oxoguanine 8 bp upstream of E-box, ~50% of length) is 0.29 Myc/DNA and 0.17 Myc/DNA; in data set [7], 0.16 Myc/DNA; in [8], 0.29 Myc/DNA and 0.17 Myc/DNA; with c-Myc;Max, 0.14 Myc/DNA and 0.12 Myc/DNA; in data set [9], 0.12 Myc/DNA and 0.08 Myc/DNA.
